This note sets out measurements from the supplement of paper PMC9170038.

The data set relates to MS2 coat protein. Kind of data set: apparent KD of MS2 coat protein; designed switch direction (-1 OFF switch, 1 ON switch): -1; higher = weaker reporter binding. An outline of the steps:
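The buffer was Tris-HCl pH 7.5 with KCl, MgCl2, BSA, DTT, tRNA and Tween-20. In it, SNAP-549-labelled MS2 coat protein was titrated in doubling steps from 0.7 or 1.5 nM to 3 µM over chip-bound RNA switches transcribed by stalled E. coli RNA polymerase on Illumina chips. Apparent KD is the per-design median over clusters of curve fits to normalised fluorescence.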

The mark [1] stands for this setting: input ligand: microRNA oligo, concentration not stated.
Where [2] appears, read: Eterna round: R95, input ligand: microRNA oligo, concentration not stated.
[3] abbreviates: Eterna round: R95, input ligand: FMN 200 uM.
Setting [4] is: Eterna round: R95, input ligand: none.

Regarding “UUCCUCACUUCUUUGACUCACAUGAGGAUCACCCAUGUAAUAUAGGAUAUGCAUUUUAUUUCUUUGCAGAAGGAUAUUAGUUUU [JR_ExcNG3_Sub088] (Eterna round: R96, puzzle: Exclusion NG 3)”, the “apparent KD of MS2 coat protein” value under setting [1] came out at 0.0347 µM.
In the case of “UUCGCGGAAGGAUAUACAUGAGGAUCACCCAUGUGCUUAUGCGCAACAGCUUCGCAGUGUAGAAGGUUCAGAGU [Eternabot (L1) Solution 3] (Eterna round: R97, puzzle: Exclusion 3)”, the “apparent KD of MS2 coat protein” value was determined as 0.0189 µM (input ligand: FMN 200 uM) and 0.0234 µM (input ligand: none).
“UUCUUACAUGAGGAUCACCCAUGUCAGGAUAUCUCCACACUGCGCUUGCGCAGUGUAUAGAGAAGGGACAGGCU [JL ViennaUCT Aner mod 5] (puzzle: Exclusion 1)”: under setting [2], the “apparent KD of MS2 coat protein” value was determined as 0.0407 µM.
For the sequence “UUCUUACAUGAGGAUCACCCAUGUCAGGAUAUCUCCUCACUGCGCUUGCGCAGUGGAUAGAGAAGGGACAGGCU [JL ViennaUCT Aner mod 3] (puzzle: Exclusion 1)”, under setting [2], the “apparent KD of MS2 coat protein” value was 0.0431 µM.
For the sequence “UUCUUUAUACGAGGAUAUCAUACAUGAGGAUCACCCAUGUGGCUGGGUCUGUUUUUAUAUAUUAUUGAGAAGGCGUUUUUCUUU [JR_ExcNG2_Sub074] (Eterna round: R96, puzzle: Exclusion NG 2)”, the “apparent KD of MS2 coat protein” value reads like this: (input ligand: FMN 200 uM) 0.197 µM; under setting [1], 0.0505 µM; (input ligand: none) 0.0867 µM.
As to “UUGAUGUGAGGAUAUAUUUUUUUUUUUCUUUAUGUUUUAUAACUUGAGGAUCACCCAAGUAGAAGGCGCUACGU [JR_Ex2_Sub064] (Eterna round: R97, puzzle: Exclusion 2)”, the “apparent KD of MS2 coat protein” value is, setting by setting: (input ligand: FMN 200 uM) 0.0517 µM; (input ligand: none) 0.0305 µM.
Take “UUGCUACCUUGGUACUCUACAAGCUUUUUGCUCGUUUUAACAUGAGGAUCACCCAUGUCUAGUGGAUCUGAUCGGGU [JL ViennaUCT Isreen mod 3] (puzzle: Sensor v3, turn-off variant 2)”: the “apparent KD of MS2 coat protein” value was determined as 0.0874 µM under setting [3], 0.197 µM under setting [2] and 0.0775 µM under setting [4].
“UUGGACGGAGGAUAUGCAGCGAGUAAUACGAUCGAUCCAAAACAUGAGGAUCACCCAUGUAGAAGGCUGACCAA [Eternabot (L1) Solution 11] (Eterna round: R97, puzzle: Exclusion 2)”: the “apparent KD of MS2 coat protein” value runs as follows: (input ligand: FMN 200 uM) 0.174 µM; (input ligand: none) 0.0712 µM.
On to “UUGGAGAUAGGAUAUACGAGGAGAGUAGAGGGAAGGUGAGGACAUGAGGAUCACCCAUGUAGAAGGAUCAGGAG [JR_Exclu2_Sub067] (puzzle: Exclusion 2)”, for which the “apparent KD of MS2 coat protein” value turned out to be 0.0348 µM under setting [3], 0.0348 µM under setting [2] and 0.0476 µM under setting [4].
Take “UUGGAUGUUGAGGAUAUGCUUUUUUUUAUUAUAGCAGAAGGCGAUACAUGAGGAUCACCCAUGUUCAUGGCUUU [JR_E6_Sub099] (puzzle: Exclusion 6)”: the “apparent KD of MS2 coat protein” value runs as follows: under setting [3], 0.0145 µM; under setting [2], 0.0137 µM; under setting [4], 0.0146 µM.
With “UUGGUUGUGGUAGGAUAUCCGUUGGAAACCGUUGGAGAAGGACCACAGUCACUGGGUCUUUGUUUGGUGGAGUGGAAGAACCAU [pwkr exNG1 F6.19] (Eterna round: R96, puzzle: Exclusion NG 1)”, the “apparent KD of MS2 coat protein” value reads like this: (input ligand: FMN 200 uM) 1.02 µM; under setting [1], 0.21 µM; (input ligand: none) 0.349 µM.
Consider “UUGUAGUGAGGAUAUAUAUAGAGGUUUUAUUAAUUUUUAAAACUUGAGGAUCACCCAAGUAGAAGGCGCAAAGU [JR_Ex2_Sub071] (Eterna round: R97, puzzle: Exclusion 2)”, for which the “apparent KD of MS2 coat protein” value turned out to be 0.0415 µM (input ligand: FMN 200 uM) and 0.0399 µM (input ligand: none).
For “UUGUUAUAUGUAGGAUAUGCGUAUUAUUAUUAGGCAGAAGGACAUGAGGAUCACCCAUGUAUGUUGUUGUUAUAUAUUAUAUAU [Title] (Eterna round: R96, puzzle: Exclusion NG 1)”, under setting [1], the “apparent KD of MS2 coat protein” value stood at 0.0206 µM.
“UUGUUAUAUGUAGGAUAUGCGUAUUAUUAUUGGGCAGAAGGACAUGAGGAUCACCCAUGUAUGUUGUUGUUAUAUAUUAUAUAU [Title] (Eterna round: R96, puzzle: Exclusion NG 1)”: the “apparent KD of MS2 coat protein” value (input ligand: FMN 200 uM) was determined as 0.0472 µM, the “apparent KD of MS2 coat protein” value under setting [1] was determined as 0.034 µM and the “apparent KD of MS2 coat protein” value (input ligand: none) worked out at 0.0444 µM.
For “UUGUUAUAUGUAGGAUAUGCGUGUUAUUAUUAUGCAGAAGGACAUGAGGAUCACCCAUGUGUAUUAUUAUUAUAUAUUAUAUAU [Title] (Eterna round: R96, puzzle: Exclusion NG 1)”, the “apparent KD of MS2 coat protein” value under setting [1] worked out at 0.0154 µM.
As to “UUGUUAUGUGUAGGAUAUGCAUAUUAUUAUUAUGCAGAAGGACAUGAGGAUCACCCAUGUAUAUUAUUAUUAUAUAUUAUAUAU [Title] (Eterna round: R96, puzzle: Exclusion NG 1)”, the “apparent KD of MS2 coat protein” value under setting [1] was 0.0219 µM.
In the case of “UUGUUGUAUGUAGGAUAUGCAUAUUAUUAUUAUGCAGAAGGACAUGAGGAUCACCCAUGUGUAUUAUUAUUAUAUAUUAUAUAU [Title] (Eterna round: R96, puzzle: Exclusion NG 1)”, under setting [1], the “apparent KD of MS2 coat protein” value was 0.02 µM.
For the sequence “UUUAAACAUGAGGAUCACCCAUGUGAGGAUAUACGAAUGCAGACACACACGGAUGCAAGUAGAAGGCACAACGC [Design #11] (Eterna round: R97, puzzle: Exclusion 1)”, the “apparent KD of MS2 coat protein” value (input ligand: FMN 200 uM) is 0.0294 µM and the “apparent KD of MS2 coat protein” value (input ligand: none) is 0.025 µM.
In the case of “UUUAAGGUAAUUAAGAUCACAUGAGGAUCACCCAUGUAUAUAUAGGAUAUCAGCUCGUUUAGAGCUGAGAAGGAUAUAUACAUA [ExNG3/6-C2] (Eterna round: R96, puzzle: Exclusion NG 3)”, the “apparent KD of MS2 coat protein” value runs as follows: (input ligand: FMN 200 uM) 0.0216 µM; under setting [1], 0.178 µM; (input ligand: none) 0.136 µM.
Consider “UUUAAUUUUUUUUUUUUACAAGCUUUUUGCUCGUCUUAUACAUGAGGAUCACCCAUGUAGGUGAAGAGUAAAUUAUC [JMF 58] (puzzle: Sensor v3, turn-off variant 2)”, for which the “apparent KD of MS2 coat protein” value was 0.0194 µM under setting [3], 0.109 µM under setting [2] and 0.0165 µM under setting [4].
Turning to “UUUAAUUUUUUUUUUUUACAAGCUUUUUGCUCGUCUUAUACAUGAGGAUCACCCAUGUGGGUAAGGGAUAAAUUAUC [JMF 37] (Eterna round: R96, puzzle: Sensor v3, turn-off variant 2)”, the “apparent KD of MS2 coat protein” value turned out to be 0.0654 µM (input ligand: FMN 200 uM), 0.0518 µM under setting [1] and 0.059 µM (input ligand: none).
Take “UUUAAUUUUUUUUUUUUACAAGCUUUUUGCUCGUCUUAUACAUGAGGAUCACCCAUGUGGGUAAGGGAUAAAUUAUC [JMF 37] (puzzle: Sensor v3, turn-off variant 2)”: the “apparent KD of MS2 coat protein” value under setting [3] was found to be 0.0285 µM, the “apparent KD of MS2 coat protein” value under setting [2] came to 0.0334 µM and the “apparent KD of MS2 coat protein” value under setting [4] turned out to be 0.0353 µM.
With “UUUAAUUUUUUUUUUUUACAAGCUUUUUGCUCGUCUUAUACAUGAGGAUCACCCAUGUGGGUAGGAGAUAAAUUAUC [JMF 16] (puzzle: Sensor v3, turn-off variant 2)”, the “apparent KD of MS2 coat protein” value is, setting by setting: under setting [3], 0.0321 µM; under setting [2], 0.0454 µM; under setting [4], 0.057 µM.
For the sequence “UUUACAAGCUUAAGAUCCCACAUGAGGAUCACCCAUGUUCCUGGCCGUGAGGCUAGGUAAACUUAUGCUCGUCUUAU [JL TOV1 3.68] (Eterna round: R97, puzzle: Sensor, turn-off variant 1)”, the “apparent KD of MS2 coat protein” value runs as follows: (input ligand: FMN 200 uM) 0.141 µM; (input ligand: none) 0.138 µM.
Consider “UUUACAAGCUUUUGAUCCCACAUGAGGAUCACCCAUGUUGCUGCCGUGAGGUAGCUUUUAACAAAUGCUCGUCUUAU [JL TOV1 3.37] (Eterna round: R97, puzzle: Sensor, turn-off variant 1)”, for which the “apparent KD of MS2 coat protein” value by setting is: (input ligand: FMN 200 uM) 0.59 µM; (input ligand: none) 0.69 µM.
Take “UUUAGUCGUGACAUGGGUGACAUGAGGAUCACCCAUGUCACAAGCUUCUCGCUCGUCUUAUAAUUAACCCAUGUCAC [LRO Sensor-off var1-14 mod of Stov1-13-A1 by Brourd] (Eterna round: R97, puzzle: Sensor, turn-off variant 1)”: the “apparent KD of MS2 coat protein” value by setting is: (input ligand: FMN 200 uM) 0.0186 µM; (input ligand: none) 0.0198 µM.
“UUUAGUCGUGACAUGGGUGACAUGAGGAUCACCCAUGUUACAAGCUUGUUGCUCGUCUUAUAAUUAACCCAUGUCAC [LRO Sensor-off var1-16 mod of Stov1-13-A1 by Brourd] (Eterna round: R97, puzzle: Sensor, turn-off variant 1)”: the “apparent KD of MS2 coat protein” value was 0.0135 µM (input ligand: FMN 200 uM) and 0.0172 µM (input ligand: none).
The corresponding values for “UUUAGUUCAGGAUAUGAUGAAUUAAACAUGAGGAUCACCCAUGUAGAUCCUGAAUUAACAUCAGAAGGGAAUAUUU [JL-ex5-4.47 Brourd mod] (Eterna round: R97, puzzle: Exclusion 5)” are 0.0151 µM and 0.0137 µM.
With “UUUAGUUCAGGAUAUGUAGAUUUAAACAUGAGGAUCACCCAUGUAAAUCCUGAUCCUGCUACAGAAGGGAACAUUU [Mat - Exclusion 5 - Eli Mod - D11] (Eterna round: R97, puzzle: Exclusion 5)”, the “apparent KD of MS2 coat protein” value was found to be 0.0166 µM (input ligand: FMN 200 uM) and 0.0127 µM (input ligand: none).
With “UUUCCACAUGAGGAUCACCCAUGUCAGGAUAUCUCCACAUCUUCGGAUGUGGCGUGUUAGAGAAGGGACAUGUA [EX1 A.22] (Eterna round: R97, puzzle: Exclusion 1)”, the “apparent KD of MS2 coat protein” value is, setting by setting: (input ligand: FMN 200 uM) 0.104 µM; (input ligand: none) 0.0337 µM.
Take “UUUCUCUGUGUGAGGAUAUACUUGUUUGGGUUUUUGUAGAAGGCACAUGAGGAUCACCCAUGUAUUUUGUCGUG [JR_BME4_Sub019] (puzzle: Brourd's mod of Exclusion 4)”: under setting [2], the “apparent KD of MS2 coat protein” value came to 0.0315 µM.
